Target: TcdA^1073-1464 (fragment of the delivery and receptor-binding domain of TcdA, residues 1073-1464) (Clostridioides difficile VPI10463, UniProt P16154)
Assay: pull-down
Settings: both partners purified

Chain of TcdA^1073-1464 (fragment of the delivery and receptor-binding domain of TcdA, residues 1073-1464) (P16154 1073-1464): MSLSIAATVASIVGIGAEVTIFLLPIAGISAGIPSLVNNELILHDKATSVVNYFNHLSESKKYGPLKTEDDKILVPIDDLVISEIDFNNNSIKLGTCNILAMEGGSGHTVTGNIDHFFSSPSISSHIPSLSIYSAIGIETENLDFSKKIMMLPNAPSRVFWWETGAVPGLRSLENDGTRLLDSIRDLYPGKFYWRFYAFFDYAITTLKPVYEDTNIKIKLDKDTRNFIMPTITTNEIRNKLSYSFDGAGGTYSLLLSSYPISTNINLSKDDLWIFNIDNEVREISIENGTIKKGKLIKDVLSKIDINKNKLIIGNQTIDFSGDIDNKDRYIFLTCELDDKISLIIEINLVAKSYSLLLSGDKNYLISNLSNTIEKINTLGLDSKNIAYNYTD

B1: VHH AA6 (VHH)
VHH: QVQLVESGGGLVQPGGSLRLSCAASGFTFSDYVMTWVRQAPGKGPEWIATINTDGSTMRDDSTKGRFTISRDNAKNTLYLQMTSLKPEDTALYYCARGRVISASAIRGAVRGPGTQVTVSS
- binding result: binds

Reference: article PMC9709291 (Frontiers in Immunology, 2022)
